# Values quoted from earlier work in paper PMC5371862.
# What was measured:
# [1] = molecular target: muscarinic acetylcholine receptor M4 (Homo sapiens) (UniProt P08173)
# [2] = molecular target: muscarinic acetylcholine receptor M1 (Homo sapiens) (UniProt P11229)
# P-type calcium channel = P-type calcium channel (UniProt O00555)
# [3] = molecular target: edema factor (Bacillus anthracis) (UniProt P40136)
# [4] = molecular target: lethal factor (Bacillus anthracis) (UniProt P15917)
# Sequence of protective antigen PA63 oligomer PA63 (P13423 197-764): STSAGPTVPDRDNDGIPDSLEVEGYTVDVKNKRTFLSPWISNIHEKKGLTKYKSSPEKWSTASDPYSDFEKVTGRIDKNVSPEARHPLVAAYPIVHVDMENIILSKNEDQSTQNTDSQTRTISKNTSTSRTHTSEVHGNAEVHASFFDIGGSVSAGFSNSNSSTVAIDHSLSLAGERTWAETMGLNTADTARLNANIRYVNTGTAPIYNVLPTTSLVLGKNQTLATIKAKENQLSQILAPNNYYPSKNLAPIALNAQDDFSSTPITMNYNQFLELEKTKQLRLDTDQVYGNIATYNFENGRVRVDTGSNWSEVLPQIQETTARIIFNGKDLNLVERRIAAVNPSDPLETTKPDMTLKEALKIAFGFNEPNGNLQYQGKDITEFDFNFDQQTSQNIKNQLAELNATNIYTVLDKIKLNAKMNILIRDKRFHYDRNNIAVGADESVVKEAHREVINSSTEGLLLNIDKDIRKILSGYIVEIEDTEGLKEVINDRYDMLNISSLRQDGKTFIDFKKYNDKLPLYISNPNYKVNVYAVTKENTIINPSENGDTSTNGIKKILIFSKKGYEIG
# Sequence of muscarinic acetylcholine receptor M4 (Homo sapiens) (P08173 whole entry): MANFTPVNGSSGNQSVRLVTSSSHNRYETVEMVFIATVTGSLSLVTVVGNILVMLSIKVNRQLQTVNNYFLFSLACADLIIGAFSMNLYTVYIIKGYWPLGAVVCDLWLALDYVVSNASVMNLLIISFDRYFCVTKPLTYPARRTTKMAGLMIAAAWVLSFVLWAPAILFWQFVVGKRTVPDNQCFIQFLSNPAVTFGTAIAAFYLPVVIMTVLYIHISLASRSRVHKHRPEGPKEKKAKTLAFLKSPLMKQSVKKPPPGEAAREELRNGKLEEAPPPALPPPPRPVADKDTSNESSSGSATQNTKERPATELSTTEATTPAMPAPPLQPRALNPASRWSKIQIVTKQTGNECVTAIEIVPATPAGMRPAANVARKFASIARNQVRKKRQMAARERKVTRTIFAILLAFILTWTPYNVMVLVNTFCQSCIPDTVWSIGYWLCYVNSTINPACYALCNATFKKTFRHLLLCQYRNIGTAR
# Sequence of edema factor (Bacillus anthracis) (P40136 34-800): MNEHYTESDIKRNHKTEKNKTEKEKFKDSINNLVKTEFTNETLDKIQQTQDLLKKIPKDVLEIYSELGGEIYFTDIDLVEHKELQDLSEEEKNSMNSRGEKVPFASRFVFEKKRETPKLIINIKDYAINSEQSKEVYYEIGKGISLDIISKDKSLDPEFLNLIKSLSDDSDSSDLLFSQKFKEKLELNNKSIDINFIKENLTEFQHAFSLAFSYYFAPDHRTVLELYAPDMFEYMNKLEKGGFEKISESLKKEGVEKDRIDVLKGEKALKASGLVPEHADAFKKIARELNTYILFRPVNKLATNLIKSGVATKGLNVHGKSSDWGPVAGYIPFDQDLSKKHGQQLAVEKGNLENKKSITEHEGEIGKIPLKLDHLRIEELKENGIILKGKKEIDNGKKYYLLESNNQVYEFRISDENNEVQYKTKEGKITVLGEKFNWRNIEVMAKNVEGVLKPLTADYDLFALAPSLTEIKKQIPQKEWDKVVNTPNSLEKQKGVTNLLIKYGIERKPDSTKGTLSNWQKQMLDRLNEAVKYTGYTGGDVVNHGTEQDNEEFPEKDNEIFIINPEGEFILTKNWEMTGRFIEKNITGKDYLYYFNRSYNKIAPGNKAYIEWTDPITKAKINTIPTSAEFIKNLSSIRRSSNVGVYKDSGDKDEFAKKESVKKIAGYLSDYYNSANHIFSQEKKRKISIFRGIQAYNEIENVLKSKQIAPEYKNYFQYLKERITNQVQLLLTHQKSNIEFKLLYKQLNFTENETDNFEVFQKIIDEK
# Sequence of muscarinic acetylcholine receptor M1 (Homo sapiens) (P11229 whole entry): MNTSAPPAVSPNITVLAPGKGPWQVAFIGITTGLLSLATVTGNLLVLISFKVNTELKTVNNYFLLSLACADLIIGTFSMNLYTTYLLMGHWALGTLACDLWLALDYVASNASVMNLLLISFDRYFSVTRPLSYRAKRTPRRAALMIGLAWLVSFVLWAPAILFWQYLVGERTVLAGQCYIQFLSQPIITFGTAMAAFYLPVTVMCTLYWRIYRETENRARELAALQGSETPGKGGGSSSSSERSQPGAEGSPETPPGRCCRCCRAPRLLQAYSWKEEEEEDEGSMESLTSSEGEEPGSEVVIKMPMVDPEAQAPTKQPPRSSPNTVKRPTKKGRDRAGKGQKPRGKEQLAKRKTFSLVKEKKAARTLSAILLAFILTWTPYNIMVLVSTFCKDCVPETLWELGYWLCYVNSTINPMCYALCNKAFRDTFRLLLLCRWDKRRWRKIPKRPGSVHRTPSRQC
# Sequence of omega-agatoxin Aga-IVA (P30288 whole entry): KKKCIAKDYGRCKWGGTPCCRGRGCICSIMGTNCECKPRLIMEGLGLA
# Sequence of P-type calcium channel (O00555 whole entry): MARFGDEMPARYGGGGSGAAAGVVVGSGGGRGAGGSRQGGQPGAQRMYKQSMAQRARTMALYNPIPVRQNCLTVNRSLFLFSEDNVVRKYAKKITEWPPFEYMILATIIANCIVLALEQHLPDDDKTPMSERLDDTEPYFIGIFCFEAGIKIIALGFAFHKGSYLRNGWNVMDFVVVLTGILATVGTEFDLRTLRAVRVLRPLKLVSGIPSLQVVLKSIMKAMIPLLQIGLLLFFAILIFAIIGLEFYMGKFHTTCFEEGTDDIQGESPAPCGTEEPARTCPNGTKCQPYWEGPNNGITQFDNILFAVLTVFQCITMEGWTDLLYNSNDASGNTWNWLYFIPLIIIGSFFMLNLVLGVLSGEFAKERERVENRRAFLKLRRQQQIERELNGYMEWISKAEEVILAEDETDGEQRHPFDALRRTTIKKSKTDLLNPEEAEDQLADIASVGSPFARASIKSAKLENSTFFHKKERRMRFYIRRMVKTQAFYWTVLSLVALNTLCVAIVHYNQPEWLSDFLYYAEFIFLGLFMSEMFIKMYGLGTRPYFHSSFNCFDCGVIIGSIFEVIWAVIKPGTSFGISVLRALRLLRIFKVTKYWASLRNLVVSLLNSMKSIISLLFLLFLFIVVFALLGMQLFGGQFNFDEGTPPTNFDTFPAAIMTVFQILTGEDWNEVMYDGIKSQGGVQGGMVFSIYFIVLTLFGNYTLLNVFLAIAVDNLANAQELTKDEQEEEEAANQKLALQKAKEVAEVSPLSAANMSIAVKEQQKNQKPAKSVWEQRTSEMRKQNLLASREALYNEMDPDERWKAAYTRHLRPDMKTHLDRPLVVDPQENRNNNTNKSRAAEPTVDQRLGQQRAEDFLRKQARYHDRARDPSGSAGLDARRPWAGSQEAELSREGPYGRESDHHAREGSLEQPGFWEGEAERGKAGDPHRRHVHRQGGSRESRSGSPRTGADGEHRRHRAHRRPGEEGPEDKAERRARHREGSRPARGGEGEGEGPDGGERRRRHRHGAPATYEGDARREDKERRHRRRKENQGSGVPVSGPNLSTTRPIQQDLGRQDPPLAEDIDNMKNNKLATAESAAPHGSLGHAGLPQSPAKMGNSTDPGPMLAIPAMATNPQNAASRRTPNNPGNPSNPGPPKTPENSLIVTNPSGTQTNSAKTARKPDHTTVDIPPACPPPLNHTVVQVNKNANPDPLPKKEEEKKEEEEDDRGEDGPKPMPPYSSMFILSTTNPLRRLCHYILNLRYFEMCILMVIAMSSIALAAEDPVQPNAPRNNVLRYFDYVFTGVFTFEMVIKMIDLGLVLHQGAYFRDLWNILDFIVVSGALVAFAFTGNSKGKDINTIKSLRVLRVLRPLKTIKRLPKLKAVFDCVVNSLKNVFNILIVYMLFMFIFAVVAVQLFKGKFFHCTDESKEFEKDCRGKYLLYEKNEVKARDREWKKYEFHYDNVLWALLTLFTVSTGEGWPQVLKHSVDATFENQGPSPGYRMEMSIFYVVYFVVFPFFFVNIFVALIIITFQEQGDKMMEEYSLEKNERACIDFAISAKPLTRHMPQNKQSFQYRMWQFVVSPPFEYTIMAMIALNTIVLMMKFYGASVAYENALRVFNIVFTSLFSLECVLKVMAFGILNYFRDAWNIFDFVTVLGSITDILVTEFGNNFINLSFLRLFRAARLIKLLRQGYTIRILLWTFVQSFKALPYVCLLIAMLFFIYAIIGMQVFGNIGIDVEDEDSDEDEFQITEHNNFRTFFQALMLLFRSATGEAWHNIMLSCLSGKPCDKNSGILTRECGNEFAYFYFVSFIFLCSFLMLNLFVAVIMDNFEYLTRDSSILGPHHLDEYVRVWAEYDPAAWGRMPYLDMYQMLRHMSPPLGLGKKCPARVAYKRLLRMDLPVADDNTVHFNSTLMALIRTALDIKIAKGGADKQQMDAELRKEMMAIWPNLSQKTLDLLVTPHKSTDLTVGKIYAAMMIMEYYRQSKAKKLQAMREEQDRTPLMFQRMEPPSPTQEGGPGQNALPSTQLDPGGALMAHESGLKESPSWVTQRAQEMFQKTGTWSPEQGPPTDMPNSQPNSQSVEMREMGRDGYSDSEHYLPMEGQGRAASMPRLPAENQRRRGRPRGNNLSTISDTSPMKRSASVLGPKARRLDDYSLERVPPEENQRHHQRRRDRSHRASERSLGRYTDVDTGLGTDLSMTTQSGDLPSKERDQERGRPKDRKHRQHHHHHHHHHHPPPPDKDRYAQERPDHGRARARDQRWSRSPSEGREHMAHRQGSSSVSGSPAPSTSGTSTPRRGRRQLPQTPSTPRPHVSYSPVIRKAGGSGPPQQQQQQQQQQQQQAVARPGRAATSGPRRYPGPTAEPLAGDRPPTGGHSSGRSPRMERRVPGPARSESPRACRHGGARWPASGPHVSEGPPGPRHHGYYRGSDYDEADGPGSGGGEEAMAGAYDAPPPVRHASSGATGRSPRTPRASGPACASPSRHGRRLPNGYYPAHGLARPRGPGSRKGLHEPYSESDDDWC
# Sequence of muscarinic toxin MT3 (P81031 whole entry): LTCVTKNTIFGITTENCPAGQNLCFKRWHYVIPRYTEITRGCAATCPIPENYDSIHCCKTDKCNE
# Sequence of muscarinic toxin MT7 (Q8QGR0 22-86): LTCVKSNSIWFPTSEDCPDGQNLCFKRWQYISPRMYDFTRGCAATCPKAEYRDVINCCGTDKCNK
substance,measurement,setting,value
muscarinic toxin MT3 (from UniProt P81031),Ki,[1],2 nM
muscarinic toxin MT7 (from UniProt Q8QGR0),Ki,[2],0.014 nM
omega-agatoxin Aga-IVA (from UniProt P30288),Kd,P-type calcium channel,3 nM
protective antigen PA63 oligomer PA63 (from UniProt P13423),Kd,[3],1 nM
same,Kd,[4],1 nM
